Series [1] has as its system HeLa Kyoto. The series can be described thus: melting temperature (median over replicates), in situ; higher = more thermally stable.
For series [2], the system named is HeLa Kyoto. The series can be described thus: thermal stability score vs G1/S (z-score of summed log2 fold changes over temperatures); higher = more thermally stable than in G1/S.
For series [3], the system named is HeLa Kyoto. The series can be described thus: solubility change mitosis vs G1/S (difference of NP-40 vs SDS log2 ratios) (log2 ratio difference); higher = more soluble in mitosis.
Series [4] concerns HeLa Kyoto. The series can be described thus: solubility in G1/S (NP-40 vs SDS abundance) (log2 ratio); higher = more soluble. The note with it: cell cycle stage: G1/S.
Where [5] appears, read: cell cycle stage: early G1 (4.5 h after nocodazole release).

We go through 5 sequences from the supplement of paper PMC5998384.
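For melting temperature (median over replicates), in situ in this document: HeLa Kyoto cells synchronized by double thymidine or nocodazole block, proteins quantified by TMT10plex mass spectrometry, three independent biological replicates.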
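For solubility change mitosis vs G1/S (difference of NP-40 vs SDS log2 ratios) in this document: synchronized HeLa Kyoto cells (double thymidine block for G1/S, nocodazole release for mitosis), protein amounts in NP-40 versus SDS lysates quantified by mass spectrometry, three biological replicates.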
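For solubility in G1/S (NP-40 vs SDS abundance) in this document: HeLa Kyoto cells arrested at G1/S by double thymidine block, proteins quantified by TMT10plex mass spectrometry in mild NP-40 versus SDS extracts, three biological replicates.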
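For thermal stability score vs G1/S (z-score of summed log2 fold changes over temperatures) in this document: synchronized HeLa Kyoto cells, proteins quantified by TMT10plex mass spectrometry, three biological replicates, mitosis taken 0.5 h after nocodazole release, G1/S directly after double thymidine block.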

With “MAGRRVNVNVGVLGHIDSGKTALARALSTTASTAAFDKQPQSRERGITLDLGFSCFSVPLPARLRSSLPEFQAAPEAEPEPGEPLLQVTLVDCPGHASLIRTIIGGAQIIDLMMLVIDVTKGMQTQSAECLVIGQIACQKLVVVLNKIDLLPEGKRQAAIDKMTKKMQKTLENTKFRGAPIIPVAAKPGGPEAPETEAPQGIPELIELLTSQISIPTRDPSGPFLMSVDHCFSIKGQGTVMTGTILSGSISLGDSVEIPALKVVKKVKSMQMFHMPITSAMQGDRLGICVTQFDPKLLERGLVCAPESLHTVHAALISVEKIPYFRGPLQTKAKFHITVGHETVMGRLMFFSPAPDNFDQEPILDSFNFSQEYLFQEQYLSKDLTPAVTDNDEADKKAGQATEGHCPRQQWALVEFEKPVTCPRLCLVIGSRLDADIHTNTCRLAFHGILLHGLEDRNYADSFLPRLKVYKLKHKHGLVERAMDDYSVIGRSLFKKETNIQLFVGLKVHLSTGELGIIDSAFGQSGKFKIHIPGGLSPESKKILTPALKKRARAGRGEATRQEESAERSEPSQHVVLSLTFKRYVFDTHKRMVQSP [EEFSEC]”, the melting temperature in the series with HeLa Kyoto [1] (cell cycle stage: G1/S) is 49.3 °C; in the series with HeLa Kyoto [1] (cell cycle stage: mitosis), 51.2 °C. Moreover, the thermal stability score in the series with HeLa Kyoto [2] (setting [5]) came to 2.19; in the series with HeLa Kyoto [2] (cell cycle stage: mitosis), 3.12. Moreover, the “solubility change mitosis (log2)” value in the series with HeLa Kyoto [3] turned out to be 0.119. Moreover, in the series with HeLa Kyoto [4], the “solubility in G1/S (log2)” value is -0.248.

“MAGRSMQAARCPTDELSLTNCAVVNEKDFQSGQHVIVRTSPNHRYTFTLKTHPSVVPGSIAFSLPQRKWAGLSIGQEIEVSLYTFDKAKQCIGTMTIEIDFLQKKSIDSNPYDTDKMAAEFIQQFNNQAFSVGQQLVFSFNEKLFGLLVKDIEAMDPSILKGEPATGKRQKIEVGLVVGNSQVAFEKAENSSLNLIGKAKTKENRQSIINPDWNFEKMGIGGLDKEFSDIFRRAFASRVFPPEIVEQMGCKHVKGILLYGPPGCGKTLLARQIGKMLNAREPKVVNGPEILNKYVGESEANIRKLFADAEEEQRRLGANSGLHIIIFDEIDAICKQRGSMAGSTGVHDTVVNQLLSKIDGVEQLNNILVIGMTNRPDLIDEALLRPGRLEVKMEIGLPDEKGRLQILHIHTARMRGHQLLSADVDIKELAVETKNFSGAELEGLVRAAQSTAMNRHIKASTKVEVDMEKAESLQVTRGDFLASLENDIKPAFGTNQEDYASYIMNGIIKWGDPVTRVLDDGELLVQQTKNSDRTPLVSVLLEGPPHSGKTALAAKIAEESNFPFIKICSPDKMIGFSETAKCQAMKKIFDDAYKSQLSCVVVDDIERLLDYVPIGPRFSNLVLQALLVLLKKAPPQGRKLLIIGTTSRKDVLQEMEMLNAFSTTIHVPNIATGEQLLEALELLGNFKDKERTTIAQQVKGKKVWIGIKKLLMLIEMSLQMDPEYRVRKFLALLREEGASPLDFD [NSF]”: the melting temperature in the series on HeLa Kyoto [1] (cell cycle stage: G1/S) is 49.8 °C; in the series on HeLa Kyoto [1] (cell cycle stage: mitosis), 49.6 °C. Besides, the thermal stability score in the series on HeLa Kyoto [2] (setting [5]) was found to be 0.564; in the series on HeLa Kyoto [2] (cell cycle stage: mitosis), 0.772. The “solubility change mitosis (log2)” value with HeLa Kyoto [3] was -0.153. Besides, in the series on HeLa Kyoto [4], the “solubility in G1/S (log2)” value turned out to be 0.236.

“MAGSSEEAPDYGRGVVIMDDWPGYDLNLFTYPQHYYGDLEYVLIPHGIIVDRIERLAKDIMKDIGYSDIMVLCVLKGGYKFCADLVEHLKNISRNSDRFVSMKVDFIRLKSYRNDQSMGEMQIIGGDDLSTLAGKNVLIVEDVVGTGRTMKALLSNIEKYKPNMIKVASLLVKRTSRSDGFRPDYAGFEIPNLFVVGYALDYNEYFRDLNHICVINEHGKEKYRV [PRTFDC1]”: the melting temperature is 56.5 °C in the series on HeLa Kyoto [1] (cell cycle stage: G1/S) and 55.5 °C in the series on HeLa Kyoto [1] (cell cycle stage: mitosis). Besides, the results for the thermal stability score with HeLa Kyoto [2] (setting [5]) and with HeLa Kyoto [2] (cell cycle stage: mitosis) were -0.858 and -0.334, respectively. Besides, the “solubility change mitosis (log2)” value in the series with HeLa Kyoto [3] was -0.113. Also, the “solubility in G1/S (log2)” value in the series with HeLa Kyoto [4] was -0.298.

Regarding “MAGSSTGGGGVGETKVIYHLDEEETPYLVKIPVPAERITLGDFKSVLQRPAGAKYFFKSMDQDFGVVKEEISDDNARLPCFNGRVVSWLVSSDNPQPEMAPPVHEPRAELAPPAPPLPPLPPERTSGIGDSRPPSFHPNVSSSHENLEPETETESVVSLRRERPRRRDSSEHGAGGHRTGGPSRLERHLAGYESSSTLMTSELESTSLGDSDEEDTMSRFSSSTEQSSASRLLKRHRRRRKQRPPRLERTSSFSSVTDSTMSLNIITVTLNMEKYNFLGISIVGQSNERGDGGIYIGSIMKGGAVAADGRIEPGDMLLQVNDMNFENMSNDDAVRVLRDIVHKPGPIVLTVAKCWDPSPQAYFTLPRNEPIQPIDPAAWVSHSAALTGTFPAYPGSSSMSTITSGSSLPDGCEGRGLSVHTDMASVTKAMAAPESGLEVRDRMWLKITIPNAFLGSDVVDWLYHHVEGFPERREARKYASGLLKAGLIRHTVNKITFSEQCYYVFGDLSGGCESYLVNLSLNDNDGSSGASDQDTLAPLPGATPWPLLPTFSYQYPAPHPYSPQPPPYHELSSYTYGGGSASSQHSEGSRSSGSTRSDGGAGRTGRPEERAPESKSGSGSESEPSSRGGSLRRGGEASGTSDGGPPPSRGSTGGAPNLRAHPGLHPYGPPPGMALPYNPMMVVMMPPPPPPVPPAVQPPGAPPVRDLGSVPPELTASRQSFHMAMGNPSEFFVDVM [DVL2]”, the melting temperature in the series with HeLa Kyoto [1] (cell cycle stage: G1/S) is 47 °C; with HeLa Kyoto [1] (cell cycle stage: mitosis), 48.7 °C. Moreover, the thermal stability score in the series with HeLa Kyoto [2] (setting [5]) was 0.348; in the series on HeLa Kyoto [2] (cell cycle stage: mitosis), 0.985. In addition, in the series on HeLa Kyoto [3], the “solubility change mitosis (log2)” value is -0.0693. Besides, the “solubility in G1/S (log2)” value with HeLa Kyoto [4] is -0.00889.

For “MAGSVGLALCGQTLVVRGGSRFLATSIASSDDDSLFIYDCSAAEKKSQENKGEDAPLDQGSGAILASTFSKSGSYFALTDDSKRLILFRTKPWQCLSVRTVARRCTALTFIASEEKVLVADKSGDVYSFSVLEPHGCGRLELGHLSMLLDVAVSPDDRFILTADRDEKIRVSWAAAPHSIESFCLGHTEFVSRISVVPTQPGLLLSSSGDGTLRLWEYRSGRQLHCCHLASLQELVDPQAPQKFAASRIAFWCQENCVALLCDGTPVVYIFQLDARRQQLVYRQQLAFQHQVWDVAFEETQGLWVLQDCQEAPLVLYRPVGDQWQSVPESTVLKKVSGVLRGNWAMLEGSAGADASFSSLYKATFDNVTSYLKKKEERLQQQLEKKQRRRSPPPGPDGHAKKMRPGEATLSC [WDR4]”, the melting temperature in the series with HeLa Kyoto [1] (cell cycle stage: G1/S) came to 52.8 °C; with HeLa Kyoto [1] (cell cycle stage: mitosis) it was 53.9 °C. The thermal stability score in the series on HeLa Kyoto [2] (setting [5]) is 0.0653; in the series with HeLa Kyoto [2] (cell cycle stage: mitosis), -0.0979. Besides, the “solubility change mitosis (log2)” value in the series on HeLa Kyoto [3] is -0.396. Moreover, in the series with HeLa Kyoto [4], the “solubility in G1/S (log2)” value is -0.256.
